# Data from US6410296.
# B1: LM8, subclone of APNG1 expressing amino acids 1-249 (protein)
# chain: MADPVYVGGFLVRYDEPPGEAELFLPSGVVDRWLRDCRGPLPLNVNHDESATVGYVAGLQNVRAGLFCLGRVTSPKFLDIVQKASEKSELVSRGPPSESSLRPDGVLEFLSGSYSGLSLSSRRDINAADGAAGDAETACFKHVALCSVGRRRGTLAVYGRQPDWVMERFPDLTEADREALRNQLSGSGEVAAKESAESSAAAAVDPFQSDSYGLLGNSVDALYIQERLPKLRYDKRLVGVTARESYVKA
# B2: LM7, subclone of APNG1 expressing amino acids 1-280 (protein)
# chain: MADPVYVGGFLVRYDEPPGEAELFLPSGVVDRWLRDCRGPLPLNVNHDESATVGYVAGLQNVRAGLFCLGRVTSPKFLDIVQKASEKSELVSRGPPSESSLRPDGVLEFLSGSYSGLSLSSRRDINAADGAAGDAETACFKHVALCSVGRRRGTLAVYGRQPDWVMERFPDLTEADREALRNQLSGSGEVAAKESAESSAAAAVDPFQSDSYGLLGNSVDALYIQERLPKLRYDKRLVGVTARESYVKASVSPAEQETCDIKVEKERPKEPEQSHVPTES
# Target: CMV Colburn assembly protein precursor (product of APNG.5)
row,Protein,proteolytic activity
1,B1,Both are proteolytically active using assembly protein precursor as a substrate
2,B2,Both are proteolytically active using assembly protein precursor as a substrate
